Patent publication US20230348603A1 (VERSEAU THERAPEUTICS, published 2023)

Tests used:
Human VSIG4-L-Fc [1] = molecular target: T1, Human VSIG4-L-Fc (human); test: ELISA, Fab P.E. 1:5 on coated antigen;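 note: mouse Fab P.E. samples in 1% skimmed milk PBS, bound to antigen-coated wells for 1 h at room temperature, read as absorbance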
T1 construct: also called hVSIG4-L-Fc; hVSIG4-L
Description: (§1) Coated microplates were blocked with dried skimmed milk at 4% in PBS. P.E. samples of the mouse unique Fab sequences were diluted 1:5 in assay buffer (1% dried skimmed milk in PBS), and 100 μl of diluted sample was added onto the coated wells and incubated for one hour at room temperature. […] Optical density (OD) at 450 nm was determined using a standard absorbance microplate reader.

Human VSIG4-S-Fc = molecular target: T2, Human VSIG4-S-Fc (human); test: ELISA, Fab P.E. 1:5 on coated antigen;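 note: mouse Fab P.E. samples in 1% skimmed milk PBS, bound to antigen-coated wells for 1 h at room temperature, read as absorbance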
T2 construct: short isoform ECD fused to human Fc1; also called hVSIG4-S
T2 sequence (chain, as listed by the source limits assumed): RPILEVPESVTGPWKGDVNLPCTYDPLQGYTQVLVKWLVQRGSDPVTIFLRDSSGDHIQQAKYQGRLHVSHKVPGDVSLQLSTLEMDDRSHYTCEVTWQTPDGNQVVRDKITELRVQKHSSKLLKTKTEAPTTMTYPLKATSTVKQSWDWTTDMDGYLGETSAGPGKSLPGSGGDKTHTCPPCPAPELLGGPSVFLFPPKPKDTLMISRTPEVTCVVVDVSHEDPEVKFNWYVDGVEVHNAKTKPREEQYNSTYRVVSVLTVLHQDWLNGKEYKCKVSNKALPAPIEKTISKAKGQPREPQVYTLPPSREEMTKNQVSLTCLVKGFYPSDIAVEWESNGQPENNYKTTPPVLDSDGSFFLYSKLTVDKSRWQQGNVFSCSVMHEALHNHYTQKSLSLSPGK
Description: as §1

[2] = molecular target: T3, Cynomolgus Monkey VSIG4-L-His (cynomolgus monkey); test: ELISA, Fab P.E. 1:5 on coated antigen;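 note: mouse Fab P.E. samples in 1% skimmed milk PBS, bound to antigen-coated wells for 1 h at room temperature, read as absorbance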
T3 construct: ECD with His tag; also called cyVSIG4-L; cyno VSIG4-L-His
T3 chain: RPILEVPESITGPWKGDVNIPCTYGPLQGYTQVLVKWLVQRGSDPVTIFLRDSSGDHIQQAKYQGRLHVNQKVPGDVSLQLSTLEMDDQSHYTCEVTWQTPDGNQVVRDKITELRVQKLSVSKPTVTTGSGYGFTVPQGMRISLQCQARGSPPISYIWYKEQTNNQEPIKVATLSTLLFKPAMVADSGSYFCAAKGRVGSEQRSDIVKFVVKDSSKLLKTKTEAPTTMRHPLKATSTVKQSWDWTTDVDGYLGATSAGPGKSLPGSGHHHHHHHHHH
Description: as §1

Human VSIG4-L-Fc [3] = molecular target: T1, Human VSIG4-L-Fc; test: blocking ELISA, biotin-C3b on coated hVSIG4-L-Fc
Description: (§2) Coated microplates were blocked with casein (Sigma-Aldrich, St. Louis, MO) at 1% in PBS. […] One hundred ill of the mixed sample was added onto the coated wells and incubated for one hour at room temperature. […] OD at 450 nm was determined using a standard absorbance microplate reader.

Human VSIG4-L-Fc [4] = molecular target: T1, Human VSIG4-L-Fc; test: blocking ELISA, biotin-iC3b on coated hVSIG4-L-Fc
Description: as §2

Human VSIG4-L-His = molecular target: T4, Human VSIG4-L-His (human, UniProt Q9Y279 20-283); test: SPR (Biacore T200), Fab P.E. 1:5 over immobilised antigen
T4 construct: long isoform ECD with His tag; also called hVSIG4-L
T4 sequence: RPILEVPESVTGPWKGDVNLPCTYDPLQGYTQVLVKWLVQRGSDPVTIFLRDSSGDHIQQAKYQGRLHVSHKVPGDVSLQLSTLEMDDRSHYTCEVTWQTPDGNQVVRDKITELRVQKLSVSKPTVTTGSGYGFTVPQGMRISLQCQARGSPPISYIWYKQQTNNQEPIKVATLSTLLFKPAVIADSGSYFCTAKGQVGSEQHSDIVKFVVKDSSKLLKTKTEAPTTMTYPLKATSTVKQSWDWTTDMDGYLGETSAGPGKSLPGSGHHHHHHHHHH

T1 sequence (chain, as listed by the source limits assumed): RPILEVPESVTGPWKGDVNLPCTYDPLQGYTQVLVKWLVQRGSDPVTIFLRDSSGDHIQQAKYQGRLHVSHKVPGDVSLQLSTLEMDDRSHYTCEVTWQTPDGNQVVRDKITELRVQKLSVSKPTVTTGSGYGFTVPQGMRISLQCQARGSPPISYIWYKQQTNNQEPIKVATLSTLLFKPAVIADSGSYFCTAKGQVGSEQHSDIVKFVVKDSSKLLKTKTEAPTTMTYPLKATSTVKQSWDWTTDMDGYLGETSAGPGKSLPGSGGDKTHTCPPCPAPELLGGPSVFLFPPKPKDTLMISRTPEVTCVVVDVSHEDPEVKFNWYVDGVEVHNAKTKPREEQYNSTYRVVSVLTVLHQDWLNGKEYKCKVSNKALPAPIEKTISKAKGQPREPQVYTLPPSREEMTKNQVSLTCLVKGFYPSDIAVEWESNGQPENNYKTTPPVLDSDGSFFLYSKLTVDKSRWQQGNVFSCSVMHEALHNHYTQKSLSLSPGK

B1: 12A12 mouse Fab (periplasmic extract) (Fab, V domains shown)
VH: QVQMKQSGAELAKPGASVKMSCKASGYTFTNYWMHWVKQRPGQGLEWIGYINPSTGYTDYNQNFKDRATLTADKSSSTAYMQLSSLTSEDSAVYYCIRGSDYYGRDYWGQGTTLTVSS
VL: DIQMTQTTSSLSASLGDRVTISCRASQDISNYLNWYQQKPDGTLKLLIYYTSRLHSGVPSRFSGSGSGTDYSLTISNLEQEDIATYFCRQGNTLPWTFGGGTKLEIK
notes: mouse Fab with C-terminal His6-c-myc tag
In the case of B1, the “ELISA OD450” value (Human VSIG4-L-Fc [1]) is reported as 4.42 OD450, the “ELISA OD450” value (Human VSIG4-S-Fc) is reported as 4.18 OD450 and the “ELISA OD450” value [2] is reported as 4.37 OD450. For the same binder, the “Percent Blocking C3b” value (Human VSIG4-L-Fc [3]) was 74.8%, the “Percent Blocking iC3b” value (Human VSIG4-L-Fc [4]) was 76.5% and the koff (Human VSIG4-L-His) was 0.0038 s⁻¹.

B2: 13H11 mouse Fab (periplasmic extract) (Fab, V domains shown)
VH: QIQLVQSGPELKKPGETVKISCKASGYTFENFGMNWVKQAPGKGLKWMGWINTYTGEATYADDFKGRFAFSLETSASTAYLQINNLKNEDTATYFCARDGGFRHFDVWGAGTTVTVSS
VL: ETTVTQSPASLSVATGEKVTIRCITSTDIDDDMNWYQQKPGEPPKLLISEGNTLRPGVPSRFSSSGYGTDFVFTIENMLSEDVADYYCLQSDNLPLTFGAGTKLELK
notes: as for B1
In the case of B2, the “ELISA OD450” value (Human VSIG4-L-Fc [1]) is reported as 4.33 OD450, the “ELISA OD450” value (Human VSIG4-S-Fc) is reported as 0.06 OD450 and the “ELISA OD450” value [2] is reported as 4.34 OD450. For the same binder, the “Percent Blocking C3b” value (Human VSIG4-L-Fc [3]) was 46.9% and the koff (Human VSIG4-L-His) was 0.045 s⁻¹.

B3: 15A06 mouse Fab (periplasmic extract) (Fab, V domains shown)
VH: QVQMKQSGPSLVRPSQTLSLTCSVTGDSITSGYWNWIRKFPGDKFEYLGYISYSGFTYYNPSLKSRVSITRDTSKNQYYLQLHSVTTEDTATYYCASSKYGSSLGFPYWGQGTLVTVSA
VL: DVVMTQTPLSLPVSLGDQASISCRSSQSLVHSNGNTYLHWYLQKPGQSPKLLIYKVSNRFSGVPDRFSGSGSGTDFTLKISRVEAEDLGVYFCSQSTHVPFTFGSGTKLEIK
notes: as for B1
B3 was tested, and the “ELISA OD450” value (Human VSIG4-L-Fc [1]) was 4.42 OD450, the “ELISA OD450” value (Human VSIG4-S-Fc) was 0.06 OD450 and the “ELISA OD450” value [2] was 0.05 OD450. The “Percent Blocking iC3b” value (Human VSIG4-L-Fc [4]) was 1.4% and the koff (Human VSIG4-L-His) was 0.0015 s⁻¹.
